Measured values taken from patent EP4692122A1, “HUMANIZED ANTIBODIES TARGETING EPHA10” (priority 2023, dated 2024).
Residue numbers refer to the chain shown, from its start.

B1: EphA10-specific humanized antibody 1-1 (antibody, V domains shown)
VH: QVTLKESGPTLVKPTQTLTLTCTFSGFSLSTSGMGVGWIRQPPGKALEWLAHIWWDDVKRYNPALKSRLTITKDTSKNQVVLTMTNMDPVDTATYYCARTSFPAGVDYWGQGTLVTVSS
VL: DVVMTQSPLSLPVTLGQPASISCRSSQSLQNSNGNTCLNWFQQRPGQSPRRLIYRVSNRFSGVPDRFSGSGSGTDFTLKISRVEAEDVGVYYCLQVTHVPFTFGQGTKLEIKR
notes: Expressed in Expi293F cells in IgG form; detected with anti-human kappa chain; also called IMGT 1-1
B2: antibody A.7 (antibody, V domains shown)
VH: B1 VH
VL: B1 VL with C37Y, V96G
notes: also called A7 antibody
B3: 1-1 (ADC) (conjugate)
VH: B1 VH
VL: B1 VL
modifications: non-natural residues
B4: antibody 2-W (antibody, V domains shown)
VH: B1 VH
VL: B1 VL with V2I, S7T, P12S, L15P, C37W, F41Y, Q42L, R44K, R50Q, R51L
notes: 1-2 with the free light chain CDR cysteine replaced by tryptophan; IgG form; also called 2W antibody; W2
B5: EphA10-specific humanized antibody 1-2 (antibody, V domains shown)
VH: B1 VH
VL: B1 VL with V2I, S7T, P12S, L15P, F41Y, Q42L, R44K, R50Q, R51L
notes: Expressed in Expi293F cells in IgG form; detected with anti-human kappa chain; also called IMGT 1-2

Legend:
[1] = target: T1, mouse EphA10 on mouse EphA10 overexpressing cell line (mouse, UniProt Q8BYG9 23-1007); experiment: flow cytometry on mouse EphA10 overexpressing cells, 500 ng antibody
T1 construct: whole, on cells; Parent cell line of the mouse EphA10 overexpressing line not clearly stated
T1 sequence (looked up): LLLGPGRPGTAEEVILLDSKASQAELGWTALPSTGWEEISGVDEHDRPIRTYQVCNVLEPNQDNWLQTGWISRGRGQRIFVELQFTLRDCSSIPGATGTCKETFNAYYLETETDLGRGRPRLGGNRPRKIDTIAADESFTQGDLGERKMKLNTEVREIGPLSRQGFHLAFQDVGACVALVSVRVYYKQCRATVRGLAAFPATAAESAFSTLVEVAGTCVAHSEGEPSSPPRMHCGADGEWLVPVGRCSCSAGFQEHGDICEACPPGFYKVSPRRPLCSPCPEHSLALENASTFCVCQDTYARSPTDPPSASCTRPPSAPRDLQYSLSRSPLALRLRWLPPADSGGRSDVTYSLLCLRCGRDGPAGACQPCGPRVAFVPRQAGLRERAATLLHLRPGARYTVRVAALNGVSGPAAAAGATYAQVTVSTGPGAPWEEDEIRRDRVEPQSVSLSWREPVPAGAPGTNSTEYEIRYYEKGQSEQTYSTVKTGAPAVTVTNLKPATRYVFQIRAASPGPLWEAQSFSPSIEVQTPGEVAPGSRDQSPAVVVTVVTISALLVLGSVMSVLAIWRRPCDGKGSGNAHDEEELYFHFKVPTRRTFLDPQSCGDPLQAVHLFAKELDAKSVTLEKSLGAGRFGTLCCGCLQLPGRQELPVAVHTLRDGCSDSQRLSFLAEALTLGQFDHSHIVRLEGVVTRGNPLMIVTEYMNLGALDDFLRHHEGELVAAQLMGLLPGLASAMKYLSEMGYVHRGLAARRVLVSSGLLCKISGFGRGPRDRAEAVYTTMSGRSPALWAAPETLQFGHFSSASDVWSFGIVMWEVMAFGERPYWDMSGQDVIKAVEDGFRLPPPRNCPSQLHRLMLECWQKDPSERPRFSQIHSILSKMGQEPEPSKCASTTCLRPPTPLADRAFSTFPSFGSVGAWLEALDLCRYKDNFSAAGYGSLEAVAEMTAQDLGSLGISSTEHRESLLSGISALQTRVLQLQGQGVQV

[2] = target: T2, human EphA10 on MDA-MB-231 human EphA10 overexpressing cell line (human, UniProt Q5JZY3 34-1008); experiment: flow cytometry on MDA-MB-231 human EphA10 overexpressing cells, 500 ng antibody
T2 construct: whole, on cells; also called hEphA10; cell-expressing-EphA10
T2 sequence (looked up): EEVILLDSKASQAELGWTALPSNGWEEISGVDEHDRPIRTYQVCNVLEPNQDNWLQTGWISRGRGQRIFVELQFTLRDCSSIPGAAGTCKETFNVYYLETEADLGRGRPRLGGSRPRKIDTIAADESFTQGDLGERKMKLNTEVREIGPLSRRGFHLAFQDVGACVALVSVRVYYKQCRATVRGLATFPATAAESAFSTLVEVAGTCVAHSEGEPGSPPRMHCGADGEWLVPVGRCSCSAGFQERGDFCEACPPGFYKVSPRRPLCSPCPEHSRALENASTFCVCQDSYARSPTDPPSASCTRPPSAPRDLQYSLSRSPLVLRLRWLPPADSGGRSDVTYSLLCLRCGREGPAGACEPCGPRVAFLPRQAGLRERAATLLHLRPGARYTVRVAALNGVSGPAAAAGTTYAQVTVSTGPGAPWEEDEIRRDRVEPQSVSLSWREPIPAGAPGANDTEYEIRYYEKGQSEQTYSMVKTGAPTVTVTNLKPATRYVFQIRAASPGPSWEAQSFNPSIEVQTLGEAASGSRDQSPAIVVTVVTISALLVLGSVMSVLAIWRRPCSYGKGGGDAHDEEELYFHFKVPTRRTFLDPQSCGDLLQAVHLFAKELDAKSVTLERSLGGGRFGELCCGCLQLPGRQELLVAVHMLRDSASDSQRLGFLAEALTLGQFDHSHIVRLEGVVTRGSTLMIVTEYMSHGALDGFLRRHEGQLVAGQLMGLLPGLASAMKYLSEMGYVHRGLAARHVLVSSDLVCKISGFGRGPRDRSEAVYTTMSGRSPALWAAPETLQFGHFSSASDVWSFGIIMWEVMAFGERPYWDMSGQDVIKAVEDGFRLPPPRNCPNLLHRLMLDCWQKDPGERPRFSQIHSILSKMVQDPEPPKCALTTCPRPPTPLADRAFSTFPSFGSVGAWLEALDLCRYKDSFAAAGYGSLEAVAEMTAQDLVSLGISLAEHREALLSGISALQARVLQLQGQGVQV

[3] = target: T3, mEphA10-Fc (mouse EphA10 fused with human Fc) (mouse; human, UniProt Q8BYG9 23-565); experiment: ELISA, mEphA10-Fc coated, anti-human kappa HRP
T3 construct: extracellular domain; not shown: human Fc
T3 sequence (looked up): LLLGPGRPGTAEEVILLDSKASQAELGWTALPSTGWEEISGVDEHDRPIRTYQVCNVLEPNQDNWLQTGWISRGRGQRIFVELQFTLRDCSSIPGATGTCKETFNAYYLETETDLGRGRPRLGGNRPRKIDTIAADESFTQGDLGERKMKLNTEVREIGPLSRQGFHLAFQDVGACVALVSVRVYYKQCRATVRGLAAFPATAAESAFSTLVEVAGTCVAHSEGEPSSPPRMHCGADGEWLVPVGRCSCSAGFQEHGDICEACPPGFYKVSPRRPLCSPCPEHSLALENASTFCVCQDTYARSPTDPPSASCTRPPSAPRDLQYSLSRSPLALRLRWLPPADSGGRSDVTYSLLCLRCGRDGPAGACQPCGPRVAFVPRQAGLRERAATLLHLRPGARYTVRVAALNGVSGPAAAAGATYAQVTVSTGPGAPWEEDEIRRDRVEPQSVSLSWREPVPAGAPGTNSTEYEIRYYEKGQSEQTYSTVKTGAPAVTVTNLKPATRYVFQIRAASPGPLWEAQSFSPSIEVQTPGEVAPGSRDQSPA

[4] = target: T4, EphA10 fused with human Fc (Homo sapiens, UniProt Q5JZY3); experiment: ELISA analysis of binding activity to EphA10; details: ELISA (FIG. 11, FIG. 20)
T4 construct: a vector for expressing an extra cellular domain (ECD) of EphA10 or a FNIII domain of the ECD was produced; made in house; host or cells: Expi293F
T4 sequence (Q5JZY3 34-565 limits assumed): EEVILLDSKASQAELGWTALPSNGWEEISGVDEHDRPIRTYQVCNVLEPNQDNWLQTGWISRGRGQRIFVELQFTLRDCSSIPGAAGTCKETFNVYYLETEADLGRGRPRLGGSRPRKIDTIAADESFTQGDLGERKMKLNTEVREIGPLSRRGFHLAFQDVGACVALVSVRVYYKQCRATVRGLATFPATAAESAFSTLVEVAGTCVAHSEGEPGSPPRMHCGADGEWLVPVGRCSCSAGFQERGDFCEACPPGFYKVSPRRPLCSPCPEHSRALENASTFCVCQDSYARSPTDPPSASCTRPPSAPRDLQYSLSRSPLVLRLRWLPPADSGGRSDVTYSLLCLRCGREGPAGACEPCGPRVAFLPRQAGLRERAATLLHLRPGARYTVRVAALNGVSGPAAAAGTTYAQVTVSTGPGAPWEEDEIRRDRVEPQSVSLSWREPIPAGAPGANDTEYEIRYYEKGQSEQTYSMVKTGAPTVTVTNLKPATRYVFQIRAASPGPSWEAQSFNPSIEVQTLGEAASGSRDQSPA
Protocol: The binding activity to EphA10 of the five EphA10-binding humanized antibodies purified in Example 3 was analyzed by ELISA. Specifically, 4 µg/ml of EphA10 fused with human Fc was diluted with a 0.05 M Na2CO3 (pH 9.6) solution and immobilized in 50 µl of a Flat Bottom Polystyrene High Bind 96-well microplate (costar) at 4°C for 16 hours, and then blocked with 100 µl of 4% skim milk (GenomicBase) at room temperature for 2 hours. […] 50 µl of a 1-Step Ultra TMB-ELISA substrate solution (Thermo Fisher Scientific) was added to develop color, and then added with 50 µl each of 2 M H2SO4 to terminate the reaction, and then analyzed using an Epoch microplate spectrophotometer (BioTek). […]
As the sequencing result, it was confirmed that a free cysteine amino acid that was not involved in disulfide bonds existed in the CDR region of the light chain of the EphA10-specific humanized antibody (FIG. 10). […] To verify this, the binding activities of EphA10-specific humanized antibody 1-1 and EphA10-targeting ADC antibody 1-1 (ADC) after ADC production were analyzed and compared by ELISA.
In Example 8 above, the binding activity to EphA10 of antibodies 1-1-A, 1-1-S, 1-2-A, and 1-2-S, in which the free cysteines present in the light chains of two types of EphA10-specific humanized antibodies 1-1 and 1-2 were substituted with serines and alanines, was analyzed by ELISA. […]

[5] = system: hEphA10 overexpressing cell line; experiment: Cancer cell killing by cell survival analysis using ATP measurement (CellTiter-Glo); assay type: cell-based, human; details: stated as a consequence of the lost EphA10 binding of the ADC (FIG. 11)
Protocol: To confirm the efficacy of ADC in vitro, a cancer cell killing effect was confirmed through cell survival analysis using ATP measurement. Specifically, MDA-MB-231 naive cells (control group), a mock cell line (negative control group), and a hEphA10 overexpressing cell line were dispensed at 2 × 10^4 per well in a 96-well white plate (SPL), respectively, and the following day, the ADC produced in Example 6 was diluted in RPMI (Capricorn) for each concentration, treated by 100 µl per well, and then incubated at 37°C for 48 hours. The ADC-treated plate was incubated at room temperature outside the incubator for 5 minutes, 50 µl of a CellTiter-Glo solution was added to each well, and then the plate was shaken at 500 rpm for 2 minutes. After reacting for 10 minutes on a room temperature bench in a light-blocked state, ATP was measured using a Synergy HTX multimode reader (Biotek).
To verify the effect of two types of EphA10-targeting ADCs A7-MMAE and 2W_MMAE produced using A7 and 2W antibodies, cell viability analysis of cancer cells was performed by measuring ATP as in Example 7-1 above.

Molecule	binding result [1]	binding result [2]	binding result [3]	other results
B1	binds	binds		
B2			binds	
B3				EphA10 binding activity of the ADC compared with the antibody before ADC production [4]: greatly reduced; in vitro ADC efficacy [5]: greatly reduced
B4			binds	
B5	binds	binds		
